Measurements published in the supplement of paper PMC9112550, “Optimization of the antimicrobial peptide Bac7 by deep mutational scanning” (BMC Biology, 2022).

Tested on: Escherichia coli TOP10
Test: shrunken log2 fold change of peptide-encoding DNA abundance (4.5 h post-induction vs induction); higher = less antimicrobial activity (less host growth inhibition)
Conditions: time post-induction: 4.5 h; library: site-saturation at positions 5, 18, 19, 20
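Also: peptides expressed intracellularly from a pBAD plasmid library in pooled LB shake-flask culture, induced with 0.3% L-arabinose, DNA abundance read by NGS, three biological replicates, DESeq2 with apeglm shrinkage.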

RRIRSRPPRLPRPRPRPLCTPRP
shrunken log2 fold change: 0.0479

RRIRSRPPRLPRPRPRPLDIPRP
shrunken log2 fold change: 0.00915

RRIRSRPPRLPRPRPRPLDNPRP
shrunken log2 fold change: -0.339

RRIRSRPPRLPRPRPRPLFGPRP
shrunken log2 fold change: 0.157

RRIRSRPPRLPRPRPRPLGEPRP
shrunken log2 fold change: 0.175

RRIRSRPPRLPRPRPRPLGGPRP
shrunken log2 fold change: 0.455

RRIRSRPPRLPRPRPRPLGVPRP
shrunken log2 fold change: 0.0588

RRIRSRPPRLPRPRPRPLGWPRP
shrunken log2 fold change: 0.76

RRIRSRPPRLPRPRPRPLHMPRP
shrunken log2 fold change: 0.0919

RRIRSRPPRLPRPRPRPLKPPRP
shrunken log2 fold change: 0.0304

RRIRSRPPRLPRPRPRPLLMPRP
shrunken log2 fold change: 0.128

RRIRSRPPRLPRPRPRPLLSPRP
shrunken log2 fold change: -0.051

RRIRSRPPRLPRPRPRPLMKPRP
shrunken log2 fold change: 0.0556

RRIRSRPPRLPRPRPRPLMVPRP
shrunken log2 fold change: 0.134

RRIRSRPPRLPRPRPRPLNIPRP
shrunken log2 fold change: -0.422

RRIRSRPPRLPRPRPRPLQRPRP
shrunken log2 fold change: 0.0641

RRIRSRPPRLPRPRPRPLRVPRP
shrunken log2 fold change: 1.29

RRIRSRPPRLPRPRPRPLSDPRP
shrunken log2 fold change: -0.0692

RRIRSRPPRLPRPRPRPLSEPRP
shrunken log2 fold change: -0.48

RRIRSRPPRLPRPRPRPLVDPRP
shrunken log2 fold change: 0.115

RRIRSRPPRLPRPRPRPLVEPRP
shrunken log2 fold change: 0.28

RRIRSRPPRLPRPRPRPLYMPRP
shrunken log2 fold change: -1

RRIRSRPPRLPRPRPRPMAIPRP
shrunken log2 fold change: 4e-05

RRIRSRPPRLPRPRPRPMCEPRP
shrunken log2 fold change: -0.0274

RRIRSRPPRLPRPRPRPMCFPRP
shrunken log2 fold change: -0.149

RRIRSRPPRLPRPRPRPMCQPRP
shrunken log2 fold change: -0.0136

RRIRSRPPRLPRPRPRPMCRPRP
shrunken log2 fold change: -0.147

RRIRSRPPRLPRPRPRPMDFPRP
shrunken log2 fold change: -0.215

RRIRSRPPRLPRPRPRPMDLPRP
shrunken log2 fold change: 0.0372

RRIRSRPPRLPRPRPRPMDSPRP
shrunken log2 fold change: -0.279

RRIRSRPPRLPRPRPRPMFPPRP
shrunken log2 fold change: -0.22

RRIRSRPPRLPRPRPRPMGCPRP
shrunken log2 fold change: -0.112

RRIRSRPPRLPRPRPRPMGIPRP
shrunken log2 fold change: 0.0414

RRIRSRPPRLPRPRPRPMGRPRP
shrunken log2 fold change: 0.0253

RRIRSRPPRLPRPRPRPMGSPRP
shrunken log2 fold change: -0.205

RRIRSRPPRLPRPRPRPMHGPRP
shrunken log2 fold change: 0.102

RRIRSRPPRLPRPRPRPMIGPRP
shrunken log2 fold change: 0.0355

RRIRSRPPRLPRPRPRPMMAPRP
shrunken log2 fold change: -0.199

RRIRSRPPRLPRPRPRPMMHPRP
shrunken log2 fold change: -0.121

RRIRSRPPRLPRPRPRPMMTPRP
shrunken log2 fold change: -0.0968

RRIRSRPPRLPRPRPRPMRKPRP
shrunken log2 fold change: 0.853

RRIRSRPPRLPRPRPRPMSVPRP
shrunken log2 fold change: -0.0847

RRIRSRPPRLPRPRPRPMWDPRP
shrunken log2 fold change: 0.293

RRIRSRPPRLPRPRPRPMWFPRP
shrunken log2 fold change: 0.14

RRIRSRPPRLPRPRPRPMYDPRP
shrunken log2 fold change: 0.0313

RRIRSRPPRLPRPRPRPNAKPRP
shrunken log2 fold change: 0.00752

RRIRSRPPRLPRPRPRPNARPRP
shrunken log2 fold change: -0.119

RRIRSRPPRLPRPRPRPNATPRP
shrunken log2 fold change: 0.551

RRIRSRPPRLPRPRPRPNCKPRP
shrunken log2 fold change: -0.228

RRIRSRPPRLPRPRPRPNCMPRP
shrunken log2 fold change: -0.0954

RRIRSRPPRLPRPRPRPNCTPRP
shrunken log2 fold change: -0.531

RRIRSRPPRLPRPRPRPNCVPRP
shrunken log2 fold change: 0.0124

RRIRSRPPRLPRPRPRPNDHPRP
shrunken log2 fold change: -0.322

RRIRSRPPRLPRPRPRPNFKPRP
shrunken log2 fold change: -0.0661

RRIRSRPPRLPRPRPRPNGHPRP
shrunken log2 fold change: -0.0925

RRIRSRPPRLPRPRPRPNGIPRP
shrunken log2 fold change: 0.033

RRIRSRPPRLPRPRPRPNISPRP
shrunken log2 fold change: 0.00233

RRIRSRPPRLPRPRPRPNKLPRP
shrunken log2 fold change: -0.643

RRIRSRPPRLPRPRPRPNLFPRP
shrunken log2 fold change: -0.0477

RRIRSRPPRLPRPRPRPNLLPRP
shrunken log2 fold change: -0.0918

RRIRSRPPRLPRPRPRPNMDPRP
shrunken log2 fold change: -0.184

RRIRSRPPRLPRPRPRPNMTPRP
shrunken log2 fold change: -0.247

RRIRSRPPRLPRPRPRPNMWPRP
shrunken log2 fold change: -0.311

RRIRSRPPRLPRPRPRPNPSPRP
shrunken log2 fold change: -0.00593

RRIRSRPPRLPRPRPRPNQQPRP
shrunken log2 fold change: 0.121

RRIRSRPPRLPRPRPRPNQVPRP
shrunken log2 fold change: -0.0256

RRIRSRPPRLPRPRPRPNQYPRP
shrunken log2 fold change: 0.2

RRIRSRPPRLPRPRPRPNRHPRP
shrunken log2 fold change: -0.219

RRIRSRPPRLPRPRPRPNRIPRP
shrunken log2 fold change: -0.304

RRIRSRPPRLPRPRPRPNRQPRP
shrunken log2 fold change: -0.403

RRIRSRPPRLPRPRPRPNSWPRP
shrunken log2 fold change: 0.0508

RRIRSRPPRLPRPRPRPNTHPRP
shrunken log2 fold change: -0.413

RRIRSRPPRLPRPRPRPNVVPRP
shrunken log2 fold change: -0.0558

RRIRSRPPRLPRPRPRPNWPPRP
shrunken log2 fold change: 0.278

RRIRSRPPRLPRPRPRPNYAPRP
shrunken log2 fold change: -0.327

RRIRSRPPRLPRPRPRPPCFPRP
shrunken log2 fold change: -0.0133

RRIRSRPPRLPRPRPRPPCMPRP
shrunken log2 fold change: 0.464

RRIRSRPPRLPRPRPRPPCVPRP
shrunken log2 fold change: 0.00342

RRIRSRPPRLPRPRPRPPEDPRP
shrunken log2 fold change: 0.0304

RRIRSRPPRLPRPRPRPPFWPRP
shrunken log2 fold change: 0.837

RRIRSRPPRLPRPRPRPPGGPRP
shrunken log2 fold change: 0.724

RRIRSRPPRLPRPRPRPPGSPRP
shrunken log2 fold change: 0.134

RRIRSRPPRLPRPRPRPPHLPRP
shrunken log2 fold change: -0.00867

RRIRSRPPRLPRPRPRPPKRPRP
shrunken log2 fold change: 0.626

RRIRSRPPRLPRPRPRPPLAPRP
shrunken log2 fold change: 0.812

RRIRSRPPRLPRPRPRPPLKPRP
shrunken log2 fold change: 0.0467

RRIRSRPPRLPRPRPRPPMIPRP
shrunken log2 fold change: -0.17

RRIRSRPPRLPRPRPRPPMNPRP
shrunken log2 fold change: -0.347

RRIRSRPPRLPRPRPRPPMRPRP
shrunken log2 fold change: 1.02

RRIRSRPPRLPRPRPRPPNCPRP
shrunken log2 fold change: 0.231

RRIRSRPPRLPRPRPRPPNIPRP
shrunken log2 fold change: -0.251

RRIRSRPPRLPRPRPRPPNVPRP
shrunken log2 fold change: 0.0837

RRIRSRPPRLPRPRPRPPPGPRP
shrunken log2 fold change: 0.891

RRIRSRPPRLPRPRPRPPQMPRP
shrunken log2 fold change: 0.154

RRIRSRPPRLPRPRPRPPRWPRP
shrunken log2 fold change: 0.722

RRIRSRPPRLPRPRPRPPSDPRP
shrunken log2 fold change: 0.385

RRIRSRPPRLPRPRPRPPSFPRP
shrunken log2 fold change: 0.0731

RRIRSRPPRLPRPRPRPPSSPRP
shrunken log2 fold change: -0.0711

RRIRSRPPRLPRPRPRPPTIPRP
shrunken log2 fold change: 0.0521

RRIRSRPPRLPRPRPRPPTMPRP
shrunken log2 fold change: -0.00342

RRIRSRPPRLPRPRPRPPTVPRP
shrunken log2 fold change: 0.153

RRIRSRPPRLPRPRPRPPVCPRP
shrunken log2 fold change: 0.311

RRIRSRPPRLPRPRPRPPVGPRP
shrunken log2 fold change: 0.457

RRIRSRPPRLPRPRPRPPVSPRP
shrunken log2 fold change: 0.308

RRIRSRPPRLPRPRPRPPYCPRP
shrunken log2 fold change: -0.031

RRIRSRPPRLPRPRPRPPYMPRP
shrunken log2 fold change: -0.316

RRIRSRPPRLPRPRPRPPYVPRP
shrunken log2 fold change: -0.215

RRIRSRPPRLPRPRPRPQAKPRP
shrunken log2 fold change: 0.0225

RRIRSRPPRLPRPRPRPQCYPRP
shrunken log2 fold change: -0.569

RRIRSRPPRLPRPRPRPQDCPRP
shrunken log2 fold change: -0.261

RRIRSRPPRLPRPRPRPQDMPRP
shrunken log2 fold change: 0.035

RRIRSRPPRLPRPRPRPQEHPRP
shrunken log2 fold change: -0.112

RRIRSRPPRLPRPRPRPQEWPRP
shrunken log2 fold change: 0.0425

RRIRSRPPRLPRPRPRPQGKPRP
shrunken log2 fold change: 0.0304

RRIRSRPPRLPRPRPRPQGSPRP
shrunken log2 fold change: -0.00511

RRIRSRPPRLPRPRPRPQGYPRP
shrunken log2 fold change: -0.139

RRIRSRPPRLPRPRPRPQHHPRP
shrunken log2 fold change: -0.466

RRIRSRPPRLPRPRPRPQIEPRP
shrunken log2 fold change: 0.0319

RRIRSRPPRLPRPRPRPQKYPRP
shrunken log2 fold change: -0.428

RRIRSRPPRLPRPRPRPQLHPRP
shrunken log2 fold change: -0.175

RRIRSRPPRLPRPRPRPQLNPRP
shrunken log2 fold change: -0.248

RRIRSRPPRLPRPRPRPQMAPRP
shrunken log2 fold change: 0.0615

RRIRSRPPRLPRPRPRPQMCPRP
shrunken log2 fold change: -0.724

RRIRSRPPRLPRPRPRPQMLPRP
shrunken log2 fold change: -0.195

RRIRSRPPRLPRPRPRPQNPPRP
shrunken log2 fold change: -0.296

RRIRSRPPRLPRPRPRPQPLPRP
shrunken log2 fold change: 0.256

RRIRSRPPRLPRPRPRPQQAPRP
shrunken log2 fold change: 0.0031

RRIRSRPPRLPRPRPRPQQCPRP
shrunken log2 fold change: -0.146

RRIRSRPPRLPRPRPRPQQIPRP
shrunken log2 fold change: 0.153

RRIRSRPPRLPRPRPRPQQKPRP
shrunken log2 fold change: -0.138

RRIRSRPPRLPRPRPRPQQMPRP
shrunken log2 fold change: -0.155

RRIRSRPPRLPRPRPRPQRAPRP
shrunken log2 fold change: 0.123

RRIRSRPPRLPRPRPRPQRLPRP
shrunken log2 fold change: -0.187

RRIRSRPPRLPRPRPRPQRNPRP
shrunken log2 fold change: 0.104

RRIRSRPPRLPRPRPRPQSDPRP
shrunken log2 fold change: -0.0499

RRIRSRPPRLPRPRPRPQTSPRP
shrunken log2 fold change: -0.157

RRIRSRPPRLPRPRPRPQVPPRP
shrunken log2 fold change: 0.299

RRIRSRPPRLPRPRPRPQVQPRP
shrunken log2 fold change: 0.374

RRIRSRPPRLPRPRPRPQWEPRP
shrunken log2 fold change: 0.022

RRIRSRPPRLPRPRPRPQYLPRP
shrunken log2 fold change: -0.683

RRIRSRPPRLPRPRPRPRAAPRP
shrunken log2 fold change: 0.504

RRIRSRPPRLPRPRPRPRACPRP
shrunken log2 fold change: 0.403

RRIRSRPPRLPRPRPRPRAIPRP
shrunken log2 fold change: 0.134

RRIRSRPPRLPRPRPRPRAMPRP
shrunken log2 fold change: 0.107

RRIRSRPPRLPRPRPRPRCLPRP
shrunken log2 fold change: 0.0297

RRIRSRPPRLPRPRPRPRCWPRP
shrunken log2 fold change: 0.329

RRIRSRPPRLPRPRPRPRDCPRP
shrunken log2 fold change: 0.686

RRIRSRPPRLPRPRPRPRDEPRP
shrunken log2 fold change: 0.242

RRIRSRPPRLPRPRPRPREYPRP
shrunken log2 fold change: -0.0557

RRIRSRPPRLPRPRPRPRFIPRP
shrunken log2 fold change: 0.00415
